Laboratory results: paper PMC11148139
Where two headings read alike, the source gives them in different places.

Substance: GCH1 (GTP cyclohydrolase I): S81D phosphomimetic
- other (phosphorylation at S81): increases

Substance: LDHA (lactate dehydrogenase A): C163A
- enzymatic_activity (other: S-nitrosylation at C163): decreases

Substance: LDHA (lactate dehydrogenase A): C163A/C293A (2C-A)
- localisation_or_trafficking (other: S-nitrosylation at C163): decreases
- localisation_or_trafficking (other: S-nitrosylation at C293): decreases

Substance: LDHA (lactate dehydrogenase A): C293A
- enzymatic_activity (other: S-nitrosylation at C293): decreases
